# Data: PMC7694065
# Molecular target: recombinant Hbl B (hemolysin BL component B) with N-terminal strep tag (Bacillus cereus) (UniProt P80172)
substance,measurement,value
recombinant Hbl B (hemolysin BL component B) with N-terminal strep tag (from UniProt P80172 32-375) (natural protein),"binding of rHbl B to Vero cells (flow cytometry, mAb 1G8-Alexa 488) after 10 min heat treatment over a temperature gradient; minimum 7% FL1-positive cells at 60 °C, increase from 70 °C upwards (% FL1-positive cells)",93
